Consider 30 sequences from the nanobody polyreactivity screen of Harvey et al. (2022).

This data set is described as follows: yeast display, Sf9 membrane polyspecificity reagent, FACS + sequencing; frameworks hold sequencing errors. Summed up: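 Using colony PCR, genes from sorted yeast display clones were amplified, then sequenced on MiSeq at 2 × 250 and filtered by CDR length. The clones had been stained with 10% biotinylated, detergent-solubilized Sf9 membrane reagent for 1 hour at 4 °C and sorted by FACS into low and high (top ~1%) gates on anti-HA and streptavidin fluorescence. Polyreactivity labels come from the gate of origin.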
As to “QVQLVESGGGLVQAGGSLRLSCAASGSTSDPYGMGWYRQAPGKERELVAAISSNGDSTYYADSVKGRFTLSRDNAKNTVYLQMNSLKPEDTAVYYCAARILYSYHLYDYWGQGTQVTVSS”, the “polyreactivity (PSR sort gate)” value was “high polyreactivity”.
“QVQLVESGGGLVQAGGSLRLSCAASGSTFSSNGMGWYRPAPGKERELVAAITSGGSTNYADSVKGRFTISRDNAKNTVYLQMNSLKPEDTAVYYCNAERTAYGGGDYWGQGTQVTVSS”: the “polyreactivity (PSR sort gate)” value was “low polyreactivity”.
In the case of “QVQLVESGGGLVQAGGSLRLSCAASGSIFYWYAMGWYRQAPGKERELVAAISSGGSTNYADSVKGRFTISRDNAKNTVYLQMNSLKPEDTAVYYCNADIRSFYWEYYTGLDSWGQGTQVTVSS” it was “low polyreactivity”.
The result for “QVQLVESAGGLVQAGGSLRLSCPASGRTFFPYAMGWYRQPPGQEREFVAAITNTDDSTYYADSVKGRFTISRDNAKNTVYLQMNSLKPEDTAVYYCNAGDTQIRFYYWGQGSQVTVSS” reads “low polyreactivity”.
For the sequence “QVQLVESGGGLVQAGGSLRLSCAASGFTIHYNAMGWYRQAPGKERELVATISKSAGITSYADSVKGRFTISRDNAKNTVYLLMNSLKPEDTAVYYCAADKSYRRVYYWGQGTQVTVSS”, the “polyreactivity (PSR sort gate)” value is recorded as “low polyreactivity”.
On to “QVQLVESGGGLVQAGGSLRLSCAASGITFKDYAMGWYRQATGKERELVAVISYSGGSTYYADSVKGRFTISRDNAKNTVYLQMNSLKPEDTAVYYCAARVGPEYDWGQGTQVTVSS”, for which the “polyreactivity (PSR sort gate)” value is recorded as “low polyreactivity”.
For “QVQLVESGGGLVQAGGSLRLSCAASGITFTRYAMGWYRQAPGKERELVAAISSGGRTNYADSVKGRFTISRDNAKNTVYLQMNSLKPEDTGVYYCNAAGHRWDPRYHYWGQGTQVTVSS”, the “polyreactivity (PSR sort gate)” value is on record as “high polyreactivity”.
In the case of “QVQLEESGGGLVQAGGSLRLSCAASGSIFRPNAMGWYRQAPGKERELVASINSGSGSTYYADSVKGRFTISRDNAKNTVYLQMNSLKPEDTAVYYCNAAGAYPYYSEDYYWGQGTQVTVSS” it was “low polyreactivity”; in that of “QVQLVESGGGLVQAGGSLRLSCAASGSIFKKYAMGWYRQAPGKERELVAAITRGTYYADSVKGRFTISRDNAKNTVYLQMNSVKPVDTAVYYCNREYWGRGYYRVRGEYVYWGQGTQVTVSS”, “low polyreactivity”; in that of “QVQLVESGGGLVQAGGSLRLSCAASGRTLVPYAMGWYRQAPGKERELVAAINSSGGSTYYADSVKGRFTISRDNAKNTVYLQMNSLKPEDTAVYYCAATRYSKYYWGQGTQVTVSS”, “high polyreactivity”.
On to “QVQLVESGGGLVQAGGSLRLSCAASGFTIGHYAMGWYRQAPGKERELVAAISSGDRTYFADSVKGRFTISRDNAKNTFYLQMNSLKPEDTAVYYCNAVYYSWAQSARFDYWGQGTQVTVSS”, for which the “polyreactivity (PSR sort gate)” value is reported as “low polyreactivity”.
In the case of “QVQLVESGGGLVQAGGSLRLSCAASGSTYGYAMGWYRQAPGKERELVAAISSSGGRTYYADSVKGRFTISRDNAKNTVYLQMNSLKPEDTAVYYCAAGGFSQHGHGYWGQGTQVTVSS” it was “high polyreactivity”.
In the case of “QVQLVESGGGLVQAGGSLRLSCAASGSIFGTYAMGWYRQAPGKERELVATISYGDGSTYYADSVKGRFTISRDNAKNTVYLQMNSLKPEDTAVYYCNTGVYSSGGPLDYWGQGTQVTVSS” it was “low polyreactivity”.
In the case of “QVQLVESGGGLVQAGGSLRLSCAASGRTFPVNAMGWYRQAPGKERELVAAIRRRGGSTYYADSVKGRFTISRDNAKNTVYLQMNSRKPEDTAVYYCAADKSSSFSYSYGYWGHGTQVTVSS”, the “polyreactivity (PSR sort gate)” value is given as “low polyreactivity”.
The result for “QVQLVESGGGLVQAGGSLRLSCAASGSIFSVYAMGWYRQAPGKERELVASITRSGGRTYYADSVKGRFTISRDNPKNTVYLQMNSLKPEDTAVYYCAADRLGSISGYDYWGQGTQVTVSS” reads “high polyreactivity”.
The result for “QVQLVESGGGLVQAGGSLRLSCAASGRIIPGNAMGWYRQAPGKERELVAAISWGGGSTYYADSVKGRFTISRDNAKNTVYLQMNSLKPEDTAVYYCNAGVSIGRSRRYDYWGQGTQVTVSS” reads “low polyreactivity”; that for “QVQLVESGGGLVQAGGSLRLSCAASGIIVEYYTMGWKRQAPGKERELVASITYDGDTTYYADSVKGRFTISRDNAKITVYLQMNSRKPEDTAVYYCAADYYYVYSSFGHYYWGQGTQVTVSS”, “low polyreactivity”; that for “QVQLVESGGGLVQAGGSLRFSCAASGSTYYYNAMGWDRQAPGKERELVASISWSGGSTRYADSVKGRFTISRDNAKNTVYLQMNSLKPEDTAVYYCAARYILSKYGSGVRYNYWGQGTQVSVSS”, “high polyreactivity”.
In the case of “QVQLVESGGGLVQAGGSLRLSCAASGSTFAPNAMGWYRQAPGKERELVAAISSGGDSTNYADSVKGRFTISRDNAKNTVYLQMNSLKPEDTAVYYCAHGYWFVAYDYWGQGTQVTVSS” it was “low polyreactivity”.
As to “QVQLVESGGGLVQAGGSLRLSCAASGSTFDQNTMGWYREAPGKERELVASITGGDSTNYADSVKGRFTISRDNAKNTVYLQMNSLKPEDTAVYYCAADKLYQPGIGDDYWGQGTQVTVSS”, the “polyreactivity (PSR sort gate)” value was “low polyreactivity”.
In the case of “QVQLVESGGGLVQAGGSLRLSCAASGRTFRRYNMGWYRQAPGKERELVAAITTSGGSTYYSDSVKGRFTISRDNAKNTVYLQMNSLIPEDTAVYYCAATRRYSGDYWGQGTQVSVSS” it was “high polyreactivity”; in that of “QVQLVESGGGLVQAGGSLRLSCAASGFTFGWNAMGWYRQAPGKERELVAAITSGGITNYADSVKGRFTISRDNAMNTVYLQMNSLKPEDTAVYYCNARPTSRRSWYYWKGYDYWGQGTQVTVSS”, “high polyreactivity”.
The result for “QVQLVESGGGLVQAGGSLRLSCAASGRIFSVKVMGWYRQAPGKERELVAAITWSVGSTYYADSVKGRFTISRDNPKNTVSLQMNSLKREDTAVYYCAARGPPVYGRVGGYHYWGQGTQVTVSS” reads “low polyreactivity”; that for “QVQLVESGGGLVQAGGSLRLSCAASGFTFGVYARGWYRQAPGKERELVAAISRSSGRTYYADSVKWRFTISRDNAKNTVYLQMNSLKPEDTAVYYCAADLRYYGYYTRFRYYEMDYWGQGTQVTVSS”, “high polyreactivity”.
Turning to “QVQLVESGGGLVQAGGSLRISCAASGSTFYIYAMGWYRPAPGKERELVAAIRRSGGSTYYADSVKGRFTISRDNAKNTVYLQMNSLKPEDTAVYYCATRYLWRPRPYDYWGQGTQVTVSS”, the “polyreactivity (PSR sort gate)” value is “high polyreactivity”.
“QVQLGESGGGLVQAGGSLRLSCAASGGIFGKYAMGWYRQAPGKERELVAAISGGSRTNYADSVKGRFTISRDNAKNTVYLQMNSLKPEDTAVYYCAARYAYSAQRLYYWGQGTQVTVSS”: the “polyreactivity (PSR sort gate)” value was “high polyreactivity”.
With “QVQLVESGGGLVQAGGSLRLICAASGRTFAYYAMGWYRQAPGKERELVAAISSAGRTYYADSVKGRFTISRDNAKNTVYLHMNSLKPEDTSDYYCAVRWLTQFNGRYGSWGQGTQVTVSS”, the “polyreactivity (PSR sort gate)” value was “high polyreactivity”.
As for “QVQLVESGGGLVQAGGSLRLSCAASGFTFFRNAIGWYRQAPGKERELVAAISGSGGSTYYADSVKGRFTISRDNAKNTVYLQMNSLKPEDTAVYYCAARTSYYVYRHPSGRYDYWGQGTQVTVSS”, the “polyreactivity (PSR sort gate)” value was “low polyreactivity”.
In the case of “HVQLVESGGVLVQAGGSLRLSCAASGRIFRQNTMGWYRQAPGKEREIDATISWRGTRTNYADSVKGRFTISRDNAKNTVYLQMNSLKPEDTAVYYCNAQSWAYTLRTSLYDYWGQGTQVTVSS” it was “high polyreactivity”.
In the case of “QVQLVESWGGLVQAGGSLRLSCAASGFTFAYNTMGWYRQAPGTEREWVAAISSSGGSTYYADSVKGRFTISRDNAKNTVYLQMNSLKPEDTAVYDCAAPFWRSFWASDYCGQGTQVTVSS”, the “polyreactivity (PSR sort gate)” value is recorded as “high polyreactivity”.
